# Article PMC12628392, “Reengineered Anti-CD4 Cys-diabody Variants for ^89Zr-immunoPET of CD4^+ T Cells in Immunocompetent Mice” (Molecular Imaging and Biology, 2025)
# B1: GK1.5 FR cDb (scFv, V domains shown)
# VH: EVKLQESGGGLVQPGRSLKLSCAASGFNIRRTYMHWVRQAPGKGLEWIGRIDPANGNTIYGEKFKSKFTISRDNAQNTLYLQMSKLGSEDTAIYYCAIGVQYLDYWGQGVMVTVSS
# VL: DIVLTQSPAMAMSPGERITISCRATESVSTLIHWYQQKPGQQPKLLIYLTSHLDSGVPARFSGSGSGTDFTLTIDPVEANDTATYYCQQTWNDPWTFGGGTKLELK
# notes: as the VH of m1: CDRs of GK1.5 on the VH framework of YTS169; five amino acid linker, printed as G4S (VH-G4S-VL-Cys-His); C-terminal cysteine residue for site-specific conjugation, before the His6 tag; cys-diabody: covalent homodimer of the scFv; parent of m1; also called CDR-grafted cys-diabody; glycosylated GK1.5 FR cDb; source: production and purification told in the supplementary information
# B2: GK1.5 N80D cDb (scFv, V domains shown)
# VH: EVKLQESGGGLVQPGRSLKLSCAASGFNIRRTYMHWVRQAPGKGLEWIGRIDPANGNTIYGEKFKSKFTISRDNAQNTLYLQMSKLGSEDTAIYYCAIGVQYLDYWGQGVMVTVSS
# VL: DIVLTQSPAMAMSPGERITISCRATESVSTLIHWYQQKPGQQPKLLIYLTSHLDSGVPARFSGSGSGTDFTLTIDPVEADDTATYYCQQTWNDPWTFGGGTKLELK
# notes: VH: CDRs of GK1.5 (contact definition) on the VH framework of YTS169; five amino acid linker, printed as G4S (VH-G4S-VL-Cys-His); VL of GK1.5 FR cDb (CDRs of GK1.5 on the VL framework of YTS169) with N80D (L81 in Kabat numbering); C-terminal cysteine residue for site-specific conjugation, before the His6 tag; cys-diabody: covalent homodimer of the scFv (MW 52.2 kDa), inter-chain disulfide between …
# B3: Parental anti-mouse CD4 antibody GK1.5 (rat IgG2b,k) (antibody, V domains shown)
# VH: EVQLQQSGAELGKPGTSVKLSCKVSDYNIRRTYMHWVNQRPGKGLEWIGRIDPANGNTIYGEKFKSKATLTADTSSNTAYMQLSQLKSDDTAFYYCAIGVQYLDYWGQGVMVTVSS
# VL: DIVLTQSPASLAVSPGERVTISCRATESVSTLIHWFQQRPGQQPKLLIYLTSHLDSGVPARFSGSGSGTDFTLTIDPVEADDTATYYCQQTWNDPWTFGGGTKLELK
# notes: VH of hybridoma GK1.5; constant region of rat IgG2b heavy chain; VL of hybridoma GK1.5; constant region of rat kappa light chain; rat IgG2b, kappa; also called GK1.5 IgG; parental full-length GK1.5 IgG; source: bought: BioLegend Cat# 100401; copies: 2 + 2
# Experiments:
# DFO-GK1.5 FR cDb (rat) = assay: SEC; DFO-conjugated cDbs (inter-chain disulfide broken) compared with unconjugated cDbs; single peaks
# recombinant mouse CD4 = biological target: T1, recombinant mouse CD4 (Mus musculus, strain , UniProt P06332); assay: ELISA; saturation binding curves on immobilized recombinant mouse CD4; half-maximal binding (EC50), apparent affinity; settings: both partners purified
# T1 construct: CD4, mouse, recombinant; the supplementary information may tell source and limits; also called immobilized CD4 antigen; soluble murine CD4
# T1 sequence (P06332 27-457): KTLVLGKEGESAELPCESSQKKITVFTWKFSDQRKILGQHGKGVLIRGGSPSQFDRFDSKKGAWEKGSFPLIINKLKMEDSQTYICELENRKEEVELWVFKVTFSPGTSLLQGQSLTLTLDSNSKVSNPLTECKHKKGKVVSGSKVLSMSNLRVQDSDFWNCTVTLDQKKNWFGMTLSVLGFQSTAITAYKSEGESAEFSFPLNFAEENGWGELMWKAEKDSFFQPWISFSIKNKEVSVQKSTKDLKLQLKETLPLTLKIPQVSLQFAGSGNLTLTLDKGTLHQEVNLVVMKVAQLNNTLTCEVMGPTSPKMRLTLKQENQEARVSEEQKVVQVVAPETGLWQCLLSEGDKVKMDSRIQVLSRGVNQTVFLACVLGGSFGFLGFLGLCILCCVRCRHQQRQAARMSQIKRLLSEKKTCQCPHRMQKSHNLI
# [1] = biological target: mouse CD4 on splenocytes / CD4+ T cells (mouse (endogenous in splenocytes)) (UniProt P06332)
# mouse CD4 on splenocytes / CD4+ T cells (mouse (endogenous in splenocytes)), sequence (P06332 27-457): as above
# [2] = biological target: mouse CD4 on splenocytes / CD4+ T cells (mouse (endogenous in splenocytes)) (UniProt P06332); remark: listed apart in the source
# DFO-GK1.5 N80D cDb (rat) = assay: SEC; DFO-conjugated cDbs (inter-chain disulfide broken) compared with unconjugated cDbs; single peaks
# BSA = biological target: T2, BSA (Bos taurus, UniProt P02769); assay: ELISA; control: BSA instead of CD4; data not shown; settings: both partners purified
# T2 construct: serum albumin, printed only as BSA; also called control (BSA)
# T2 sequence (P02769 25-607): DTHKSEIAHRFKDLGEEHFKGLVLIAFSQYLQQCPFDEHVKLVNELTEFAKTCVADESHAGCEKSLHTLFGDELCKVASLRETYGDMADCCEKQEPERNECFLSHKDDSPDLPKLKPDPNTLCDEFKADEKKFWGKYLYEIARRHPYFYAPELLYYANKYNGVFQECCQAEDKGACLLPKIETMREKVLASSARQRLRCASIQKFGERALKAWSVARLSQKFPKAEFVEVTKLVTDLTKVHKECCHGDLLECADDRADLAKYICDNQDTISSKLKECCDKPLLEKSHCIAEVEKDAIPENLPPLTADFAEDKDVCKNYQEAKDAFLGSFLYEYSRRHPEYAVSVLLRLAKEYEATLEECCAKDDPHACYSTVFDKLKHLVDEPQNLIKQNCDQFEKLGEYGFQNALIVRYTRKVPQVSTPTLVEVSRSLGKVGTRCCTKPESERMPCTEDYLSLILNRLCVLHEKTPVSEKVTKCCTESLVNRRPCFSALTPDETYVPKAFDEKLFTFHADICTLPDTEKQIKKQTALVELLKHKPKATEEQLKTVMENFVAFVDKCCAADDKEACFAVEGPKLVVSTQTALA
binder,measurement,setting,value
B1,stoichiometry N,DFO-GK1.5 FR cDb (rat),2
same,binding result,recombinant mouse CD4,binds
same,ex vivo biodistribution 22 h p.i. of ^89Zr-GK1.5 FR cDb (2 µg) in C57BL/6J mice: uptake in spleen,[1],20.7 %ID/g
same,"ex vivo biodistribution 22 h p.i. of ^89Zr-GK1.5 FR cDb: uptake in axillary, brachial lymph nodes",[1],10.5 %ID/g
same,ex vivo biodistribution 22 h p.i. of ^89Zr-GK1.5 FR cDb: uptake in cervical lymph nodes,[1],16.7 %ID/g
same,ex vivo biodistribution 22 h p.i. of ^89Zr-GK1.5 FR cDb: uptake in inguinal lymph nodes,[1],13 %ID/g
B2,"ex vivo biodistribution 22 h p.i. of ^89Zr-GK1.5 N80D cDb, blocked by co-injection of non-radioactive GK1.5 N80D cDb: uptake in spleen (value of the text, differs from Table 2)",[2],8.1 %ID/g
same,stoichiometry N,DFO-GK1.5 N80D cDb (rat),2
same,EC50,recombinant mouse CD4,3 nM
same,ex vivo biodistribution 22 h p.i. of ^89Zr-GK1.5 N80D cDb (2 µg) in C57BL/6J mice: uptake in spleen,[1],48.5 %ID/g
same,"ex vivo biodistribution 22 h p.i. of ^89Zr-GK1.5 N80D cDb, blocked by co-injection of 60 µg (3 mg/kg) non-radioactive GK1.5 N80D cDb: uptake in spleen",[1],9.7 %ID/g
same,"ex vivo biodistribution 22 h p.i. of ^89Zr-GK1.5 N80D cDb, blocked by co-injection of non-radioactive GK1.5 N80D cDb: uptake in axillary, brachial lymph nodes",[1],16.6 %ID/g
same,"ex vivo biodistribution 22 h p.i. of ^89Zr-GK1.5 N80D cDb, blocked by co-injection of non-radioactive GK1.5 N80D cDb: uptake in cervical lymph nodes",[1],20 %ID/g
same,"ex vivo biodistribution 22 h p.i. of ^89Zr-GK1.5 N80D cDb, blocked by co-injection of non-radioactive GK1.5 N80D cDb: uptake in inguinal lymph nodes",[1],18.3 %ID/g
same,"ex vivo biodistribution 22 h p.i. of ^89Zr-GK1.5 N80D cDb: uptake in axillary, brachial lymph nodes",[1],43.5 %ID/g
same,ex vivo biodistribution 22 h p.i. of ^89Zr-GK1.5 N80D cDb: uptake in cervical lymph nodes,[1],66.2 %ID/g
same,ex vivo biodistribution 22 h p.i. of ^89Zr-GK1.5 N80D cDb: uptake in inguinal lymph nodes,[1],44.3 %ID/g
same,binding result,BSA,no binding
B3,EC50,recombinant mouse CD4,2.25 nM
